As a reminder, the Km is the substrate concentration at which the rate is half of its maximum. As usually defined, the kcat is the maximal rate divided by the concentration of active sites. What is called kcat/Km is the turnover number divided by the Michaelis constant.

These results are taken from patent US7781394B2, “Methods for identifying anti-tumor and/or anti-angiogenesis drugs with deoxynucleoside 5′-monophosphate N-glycosidase as the target” (Institut Pasteur, priority 2006, dated 2010).

Substrate in this data set: O=P(O)(O)OC[C@H]1O[C@@H](n2cnc3c(O)ncnc32)C[C@@H]1O
Nature of the data set: Kinetic parameters of His-RCL (wild-type) with dNMP substrates, initial velocity measurements. In kind it is biochemical, rat. The note with it: purine deoxynucleotides; 37.0 °C.

Procedure: The enzyme activity was determined either spectrophotometrically by following one of the reaction products, hypoxanthine or deoxyribose 5-phosphate, or by HPLC separation and UV detection of the released nucleobase and the remaining substrate. a) dIMP was used as a substrate and the hypoxanthine released oxidized to uric acid by xanthine oxidase. […] The decrease in absorbance at 340 nm was followed on a Amersham Biosciences Ultrospec 3100 pro spectrophotometer, using a millimolar absorbance coefficient of 6.22. […] Initial velocity experiments were carried out at variable concentrations of the six deoxynucleoside 5'-monophosphate: dAMP, dCMP, dGMP, dIMP, dTMP and dUMP (Table 1).

B1: His-RCL (deoxynucleoside 5′-monophosphate N-glycosidase) (Rattus norvegicus) (protein)
chain: MAASGEQAPCSVYFCGSIRGGREDQALYARIVSRLRRYGKVLTEHVADAELEPLGEEAAGGDQFIHEQDLNWLQQADVVVAEVTQPSLGVGYELGRAVALGKPILCLFRPQSGRVLSAMIRGAADGSRFQVWDYAEGEVETMLDRYFEAYLPQKTASSSHPSA
notes: made in house; host or cells: E. coli Bli5 (BL21 (DE3) pDIA17), plasmid pET28aRcl
In the case of B1, the Km was determined as 450 µM, the kcat amounted to 0.0066 s⁻¹ and the kcat/Km is 14.7 M⁻¹ s⁻¹.
